Test results as given in patent US20250381223A1 (UTC THERAPEUTICS SHANGHAI, published 2025).

T1: CD123-Fc recombinant protein (human, UniProt P26951 19-305)
T1 construct: construct not described; not shown: Fc part
T1 sequence (looked up): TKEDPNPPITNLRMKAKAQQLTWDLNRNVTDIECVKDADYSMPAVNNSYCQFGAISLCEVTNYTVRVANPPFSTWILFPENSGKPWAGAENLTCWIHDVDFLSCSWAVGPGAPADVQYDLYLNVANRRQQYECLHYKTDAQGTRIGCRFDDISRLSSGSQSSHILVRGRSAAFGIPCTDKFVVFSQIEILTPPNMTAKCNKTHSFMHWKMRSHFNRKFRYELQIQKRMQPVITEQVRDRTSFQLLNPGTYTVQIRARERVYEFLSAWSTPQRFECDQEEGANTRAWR


These binders were tested against T2, CD28 (detection antigen of the BLI assay) (human, UniProt P10747 19-152, limits assumed) (assay: BLI (GATOR); antibody loaded at 30 nM, antigen 300-37.5 nM).
T2 construct: also called the antigen
Excerpt: The affinity kinetics of the humanized antibodies were detected using biolayer interferometry (BLI). The experimental procedures were as follows: [0533] 1. GATOR instrument was run, and the Kinetics experimental mode was selected. [0534] 2. The analysis program was run according to Table 5

| Kd [nM] | koff [s⁻¹] | kon [M⁻¹ s⁻¹] | Binder |
| --- | --- | --- | --- |
| 9.13 | 0.000782 | 85700 | huVH3huVL2 (antibody, human IgG1, kappa, V domains shown) VH: QVQLQESGPGLVKPSETLSLTCTVSGFSLSDYGVHWVRQSPGKGLEWIGVIWAGGGTNYNSALKSRKTISKDNSKSQVSLKLSSVTAADTAVYYCARDKGYSYYYSMDYWGQGTTVTVSS VL: DIQLTQSPSSLSASVGDRVTITCRASESVEYYVTSLMQWYQQKPGKAPKLLIFAASNVESGVPSRFSGSGSGTNFTLTISSVQPEDFATYFCQQSRKVPYTFGGGTKLEIKR |
| 6.13 | 0.000531 | 86600 | huVH1huVL1 (antibody, human IgG1, kappa, V domains shown, also called huVH1VL1; 9.3h11) VH: QVKLQESGPGLVKPSETLSITCTVSGFSLSDYGVHWVRQSPGKGLEWLGVIWAGGGTNYNSALMSRKTISKDNSKSQVFLKMSSLTAADTAVYYCARDKGYSYYYSMDYWGQGTTVTVSS VL: DIQLTQSPSSLSVSVGDRVTISCRASESVEYYVTSLMQWYQQKPGQAPKLLIFAASNVESGVPSRFSGSGSGTNFTLTISSVQEEDFAMYFCQQSRKVPYTFGGGTKLEIKR |

The binders below were run against T3, recombinant Human/Cynomolgus CD28 (N-6His) (Human/Cynomolgus, UniProt P10747 19-152) (assay: ELISA; plate coated with CD28 (N-6His) 2 µg/mL; HRP-anti-hFc).
T3 construct: Bought protein; also called antigen CD28; not shown: 6His tag at the N-terminus (N-6His)
Experimental: The binding activity of the humanized antibody to the antigen CD28 was detected by the ELISA method. The experimental procedures were as follows: [0525] 1. 30 μL of recombinant Human/Cynomolgus CD28 (N-6His) (Suzhou Novoprotein Scientific Inc., C406) at a concentration of 2 μg/mL was added to each well of an ELISA plate, and the plate was incubated at 4° C. overnight. [0526] 2. The next day, the ELISA plate was washed 3 times with PBST (containing 0.05% Tween-20). [0527] 3. 250 μL of 5% skim milk powder (dissolved in PBS) was added to each well of the ELISA plate, and the plate was incubated at room temperature for 2 h. [0528] 4. The plate was washed 3 times with PBST, antibodies with different dilution ratios were added to the ELISA plate at 30 μL/well, and the plate was incubated at room temperature for 60 min. [0529] 5. The plate was washed 3 times with PBST, 30 μL of HRP-anti-hFc antibody was added to each well, and the plate was incubated at room temperature for 60 min. [0530] 6. The plate was washed 3 times with PBST, 30 μL of TMB was added to each well, and after color development at room temperature, 30 μL of 2 M H₂SO₄ was added to each well to stop the reaction. The plate was read at 450 nm.

| EC50 [µg/mL] | Binder |
| --- | --- |
| 0.00914 | huVH3huVL2 (antibody, human IgG1, kappa, V domains shown) VH: QVQLQESGPGLVKPSETLSLTCTVSGFSLSDYGVHWVRQSPGKGLEWIGVIWAGGGTNYNSALKSRKTISKDNSKSQVSLKLSSVTAADTAVYYCARDKGYSYYYSMDYWGQGTTVTVSS VL: DIQLTQSPSSLSASVGDRVTITCRASESVEYYVTSLMQWYQQKPGKAPKLLIFAASNVESGVPSRFSGSGSGTNFTLTISSVQPEDFATYFCQQSRKVPYTFGGGTKLEIKR |
| 0.0151 | huVH1huVL1 (antibody, human IgG1, kappa, V domains shown, also called huVH1VL1; 9.3h11) VH: QVKLQESGPGLVKPSETLSITCTVSGFSLSDYGVHWVRQSPGKGLEWLGVIWAGGGTNYNSALMSRKTISKDNSKSQVFLKMSSLTAADTAVYYCARDKGYSYYYSMDYWGQGTTVTVSS VL: DIQLTQSPSSLSVSVGDRVTISCRASESVEYYVTSLMQWYQQKPGQAPKLLIFAASNVESGVPSRFSGSGSGTNFTLTISSVQEEDFAMYFCQQSRKVPYTFGGGTKLEIKR |

The binders below were run against T1, CD123-Fc recombinant protein (assay: flow cytometry of T cells electroporated with CAR mRNA, stained with CD123-Fc + PE-anti-hIgG-Fc; Mock 0.36).
Experimental: The CD123 CAR mRNAs obtained in Example 35 above were each introduced into T cells by electroporation according to the following procedures: T cells were collected, washed with the Opti-MEM medium, and resuspended at 1×10e⁷/mL with the Opti-MEM medium; 10 μg of RNA and 100 μL of T cells were aliquoted, mixed well, and electroporated under the following parameters (BTX machine): 500 V, 0.7 ms; the cells were then transferred to a pre-warmed medium and cultured at 37° C. The binding of CD123 CART cells to the CD123-Fc recombinant protein was detected by FACS staining. […] Empty vector (Mock) was a control T cell without CAR molecule. A549 tumor cells were electroporated with different amounts of CD123 mRNA. The electroporation procedure was the same as described above, and only the parameters were changed, with the parameters 300 V, 0.5 ms used. CD123 expression in A549 tumor cells was detected by FACS staining of isotype or anti-CD123 antibodies and A549 cells electroporated with different amounts of CD123 mRNA. […] The cytotoxicity of CD123 CART cells against tumor cells was detected in an in vitro cytotoxicity assay. Tumor cells expressing EGFP or EGFP-A549 cells electroporated with different amounts of tumor antigen were seeded at 3000 cells/100 μL/well into a flat-bottom 96-well plate; CART cells were diluted to a proper concentration and seeded to the 100 μL/well tumor cells according to different E/T ratios (e.g., 10:1, 3:1, or 1:1), and the co-culture plate was placed into the IncuCyte S3 machine and scanning parameters were set. After scanning for 3 days, the total green object integrated intensity (GCU×μm²/well) was analyzed to calculate the killing efficiency.

| Binder | percent of cells in the CD123-Fc positive gate [%] |
| --- | --- |
| anti-CD123 scFv-C23 (scFv, On mRNA-electroporated T cells as CAR) scFv: DILMTQSPSSLSASVGDRVTITCQASQDISNYLNWYQQKPGKAPKLLIYDASNLETGVPSRFSGSGSGTGFSFTISSLQPEDFATYYCQQYGNLPLTFGGGTKLEIKGGGGSGGGGSGGGGSQVQLVQSGAEVKKPGASVKVSCKASGYTFTSYGISWVRQAPGQGLEWMGWISAYNGNTNYAQKLQGRVTMTTDTSTSTAYMELRSLRSDDTAVYYCARDRIAAAEVYYYYGMDVWGQGTTVTVSS | 81.8 |
| anti-CD123 scFv-C19 (scFv, On mRNA-electroporated T cells as CAR) scFv: DIRMTQSPSSLSASVGDRVTITCRASQDIRHDLGWYQQKPGKAPSLLMYATSTLQSGVPSRFSGSGSGTHFTLTISSLKPEDSATYYCLQDGDYPLTFGGGTKLEIKGGGGSGGGGSGGGGSQVQLVQSGGGVVQPGRSLRLSCAASGFTFSSYGMHWVRQAPGKGLEWVAVISYDGSNKYYADSVKGRFTISRDNSKNTLYLQMNSLRAEDTAVYYCAKDPSLIQYYYYGMDVWGQGTMVTVSS | 65.4 |
| anti-CD123 scFv-C21 (scFv, On mRNA-electroporated T cells as CAR) scFv: QSVLTQPPSASGTPGQRVTISCSGSSSNVGGNPVYWYRQVPTAAPKLLVYGHNQRPPRDPDRFSGSKSGTSASLAISGLRSEDEADYYCAAWDDSLSGWVFGGGTELTVLGGGGSGGGGSGGGGSEVQLVESGGGLVQPGRSLRLSCAASGFTFDDYAMHWVRQAPGKGLEWVSGISWNSGSIGYADSVKGRFTISRDNAKNSLYLQMNSLRAEDTALYYCAKGRYVDIVATINDAFDIWGQGTMVTVSS | 78.6 |
| anti-CD123 scFv-C27 (scFv, On mRNA-electroporated T cells as CAR) scFv: EIVLTQSPGTVSLSPGERATLSCRASQRVSATYLAWYQQKPGQAPRLLMYGGSRRATGIPDRFSGSGSGTDFTLTIRRLEPEDSAVYYCQQYGSSPLTFGGGTKLEIKGGGGSGGGGSGGGGSQVQLVQSGSELKKPGASVKVSCKASGYTFTSYGISWVRQAPGQGLEWMGWISAYNGNTNYAQKLQGRVTMTTDTSTSTAYMELRSLRSDDTAVYYCARDPYDDYGGNSRDEEDAFDIWGQGTTVTVSS | 47.8 |
| anti-CD123 scFv-C33 (scFv, On mRNA-electroporated T cells as CAR) scFv: DIRLTQSPSSLSASVGDTITITCRASQDISSWIAWYQQKPGTAPRLLIYAASSLQSGVPSRFSGSGSGTDFTLTINSLHPEDFATYYCQQGSTFPLAFGGGTKVEIKGGGGSGGGGSGGGGSQVQLVQSGAEVKKPGSSVKVSCKASGGTFSSYAISWVRQAPGQGLEWMGGIIPIFGTANYAQKFQGRVTITADESTSTAYMELSSLRSEDTAVYYCARGLDNWNDVGWFDPWGQGTLVTVSS | 58.5 |
| anti-CD123 scFv-C30 (scFv, On mRNA-electroporated T cells as CAR) scFv: AIRLTQSPSSLSASVGDRVTITCQASQNINNYLNWYQQKSGKAPKLLIYDASNLEAGVPSRFSGSASGTDFTFTISSLQPEDIATYYCQQNDNLPLTFGQGTRLEIKGGGGSGGGGSGGGGSEVQLVESGGGVVRPGGSLRLSCAASGFTFGDYGMSWVRQAPGKGLEWVSGINWNGGSTGYADSVKGRFTISRDNAKNSLYLQMNSLRAEDTALYYCARDRAPDYGDYLQVGTTDYWGQGTLVTVSS | 80.7 |
| anti-CD123 scFv-C24 (scFv, On mRNA-electroporated T cells as CAR) scFv: DIQMTQSPSSLSASVGDRVTITCRASQSISSYLNWYQQKPGKAPKLLIHAASSLQSGVPSKFSGSGSGTDFTLTISSLQPEDFATYYCLQYKTYPYTFGPGTKVEIKGGGGSGGGGSGGGGSQVQLVQSGAEVKKPGSSVKVSCKASGGTFSSYAISWVRQAPGQGLEWMGGIIPIFGTANYAQKFQGRVTITADESTSTAYMELSSLRSEDTAVYYCARDSPSGSTNYYYYYMDVWGKGTTVTVSS | 79.5 |

Continued, values first:

| percent of cells in the CD123-Fc positive gate [%] | Binder |
| --- | --- |
| 72.1 | anti-CD123 scFv-C32 (scFv, On mRNA-electroporated T cells as CAR) scFv: QSVVTQPPSASGTPGQRVTISCSGSSSNIEGNTVSWYQQFPGAAPKLLIYSNSYRASGVPDRFSGSKSGTSASLAISELQSEDEADYYCSAWDDSLNGPVFGGGTKVTVLGGGGSGGGGSGGGGSEVQLVESGGGLVQPGGSLRLSCAASGFTFTSYAMNWVRQAPGKGLEWVSDISSSSSYIYYADSVKGRFTISRDNAKNSLYLQMNSLRAEDTAVYYCARDLYSGYDYGYYYGMDVWGQGTTVTVSS |
| 73.4 | anti-CD123 scFv-C26 (scFv, On mRNA-electroporated T cells as CAR) scFv: QSVLTQPPSASGTPGQRVTISCSGSRSNIGSNTVSWYQQFPGTAPKLLIYLNNQRPSGVPDRFSGSKSGTSASLAISGLQSEDEAEYYCATWDDDLNGVFGGGTKLTVLGGGGSGGGGSGGGGSEVQLVESGGGLVQPGGSLRLSCAASGFTLSNFEMNWVRQAPGRGLEWVSYISATTSATSYADSVKGRFTISRDNAKNSLYLQMNSLRAEDTAVYYCARVRDGYNFGYYYYYMDVWGKGTTVTVSS |
| 90.3 | anti-CD123 scFv-C34 (scFv, On mRNA-electroporated T cells as CAR) scFv: QSALTQPPSASGSPGQSVTISCTGTRSDVGAYNYVSWYQHHPGKAPKLMLYDVSKRPSGVSDRFSGSKSGNTASLTVSGLQSEDEANYYCSSYAGSGKYVFGSGTELTVLGGGGSGGGGSGGGGSEVHLVESGGGLVKPGGSLRLSCAASGFTFSDTWMSWVRQAPGKGLEWVGRIKSKTDGGTTNYAAPVKGRFTISRDDSKTTLFLQMNSLKTEDTAVYYCTGGDYPLFAYWGQGALVTVSS |
| 21.6 | anti-CD123 scFv-C29 (scFv, On mRNA-electroporated T cells as CAR) scFv: QPVLTQPPSASGTPGQRVTISCSGSSSNIGSNYVYWYQQLPGTAPKLLIYRNNQRPSGVPDRFSGSKSGTSASLAISGLRSEDEADYYCAAWDDSLSGYVFGTGTKVTVLGGGGSGGGGSGGGGSEVHLVESGGGLVQPGRSLRLSCTASGFTFGDYAMSWVRQAPGKGLEWVGFIRSKAYGGTTEYAASVKGRFTISRDDSKSIAYLQMNSLKTEDTAVYYCTRDIGYYGSGSYSPFDYWGQGTLVTVSS |
